Measured values from article PMC3794440 (Biochemistry, 2013).
Read-outs that look alike come from different tables or passages of the source.

Tests used:
wild-type Pin1 [1] = molecular target: T1, wild-type Pin1 (Homo sapiens, UniProt Q13526); assay: NMR titration; assay type: binding; details: read-out: equilibrium dissociation constant Kd (WT), 295 K, 16.4 T, 30 mM imidazole-d4 pH 6.6, 5 mM DTT-d10, 30 mM NaCl, 0.03% NaN3, 90% H2O/10% D2O, uncertainties by jack-knife simulations
I28A Pin1 = I28A Pin1 (Homo sapiens, UniProt Q13526, I28A); assay: NMR titration; assay type: binding; details: read-out: equilibrium dissociation constant Kd (I28A), 295 K, 16.4 T, 30 mM imidazole-d4 pH 6.6, 5 mM DTT-d10, 30 mM NaCl, 0.03% NaN3, 90% H2O/10% D2O, uncertainties by jack-knife simulations
wild-type Pin1 [2] = molecular target: T1, wild-type Pin1; assay: chromogenic coupled isomerase assay of Kofron et al., WT; assay type: biochemical; details: chromogenic substrate suc-AEPF-pNA

## EQPLpTPVTDL [Cdc25C phosphopeptide]
wild-type Pin1 [1]; residue A140, PPIase domain
  Kd: 9.7 ± 2 µM
wild-type Pin1 [1]; residue G20, WW domain
  Kd: 9.1 ± 0.4 µM
wild-type Pin1 [1]; residue R14, WW domain
  Kd: 2.7 ± 0.7 µM
wild-type Pin1 [1]; residue R54, PPIase domain
  Kd: 7.8 ± 0.4 µM
I28A Pin1; residue G20, WW domain
  Kd: 43.5 ± 3 µM
I28A Pin1; residue R14, WW domain
  Kd: 48.5 ± 4.9 µM
I28A Pin1; residue R54, PPIase domain
  Kd: 110 ± 10 µM

## WT: full-length wild-type human Pin1 (WW domain and PPIase domain)
wild-type Pin1 [2]
  specificity constant kcat/KM (WT): 4250 ± 213 mM^–1 s^–1
